Legend:
[1] = ELISA PEG binding of h6.3 BsAbs; conditions: FIG. 14A
Method: […] The plates were washed with PBS-T (PBS containing 0.05% Tween-20) three times. Rabbit anti-6×His (2 μg/mL) supplemented with HRP-conjugated goat anti-rabbit (2 μg/mL) or HRP-conjugated goat Ig anti human IgG Fab (2 μg/mL) (Jackson ImmunoResearch Laboratories, West Grove, Pa.) in 50 μL dilution buffer were added for 1 h at room temperature. The plates were washed with PBS-T (PBS containing 0.05% Tween-20) three times and with PBS two times. Bound peroxidase activity was measured by adding 150 μL/well ABTS substrate solution (BioLegend, San Diego, Calif.) for 30 min at room temperature. The absorbance (405 nm) of wells was measured in a microplate reader (Molecular Device, Menlo Park, Calif.).
The PEG-binding kinetics of h6-3Fab×EGFR and h6.3Fab×CD19 BsAbs were verified by Microscale Thermophoresis (MST) (FIGS. 14D and 14E).

A431 (EGFR+) tumor cells = assay: Confocal live cell imaging of PEG-Qdot655 internalization; type: cell-based, human; conditions: 10 μg/mL BsAb, 16 nM PEG-Qdot655
Method: The coverslips (30 mm) in POC chambers were coated with 10 μg/mL poly-L-lysine in PBS for 30 min at room temperature. The coverslips were washed twice with PBS and then 5×10^4 cells/chamber of A431 (EGFR+) tumor cells were seeded on the coverslips. A431 cells were incubated with 10 μg/mL of h6.3Fab×EGFR or h6.3Fab×CD19 BsAbs at 37° C. for 30 min containing 1 μg/mL of Hoechst 33342 and 100 nM of LysoTracker® Red DND-99 (Invitrogen Life Technologies Corporation, NY, USA). The cells were washed with culture medium for 2 times. Cell imaging was recorded with an Axiovert 200M Confocal Microscope (Carl Ziess Inc., Thornwood, N.Y.) after adding 16 nM of PEG-Qdot655 solution (Invitrogen Life Technologies Corporation, NY, USA).
To verify whether BsAb-targeted substance could be internalized by antigen-positive cancer cells, live cell imaging was performed by staining cells with lysosome tracker and BsAbs, followed by the addition and incubation of PEG-Qdot655.

BSA = BSA (Bos taurus, UniProt P02769); assay: ELISA antigen binding of BsAbs, control protein
Method: The anti-PEG binding specificity of BsAbs was measured by adding graded concentrations of PEG2×TAG72, PEG2×DNS, hCC49 scFv, h6.3Fab×EGFR or h6.3Fab×CD19 in 50 μL 2% skim milk to the mucin, BSA-PEG5000, NH2-PEG3k-NH2 or BSA coated plates at RT for 1 h. The plates were washed with PBS-T (PBS containing 0.05% Tween-20) three times. Rabbit anti-6×His (2 μg/mL) supplemented with HRP-conjugated goat anti-rabbit (2 μg/mL) or HRP-conjugated goat Ig anti human IgG Fab (2 μg/mL) (Jackson ImmunoResearch Laboratories, West Grove, Pa.) in 50 μL dilution buffer were added for 1 h at room temperature. The plates were washed with PBS-T (PBS containing 0.05% Tween-20) three times and with PBS two times. Bound peroxidase activity was measured by adding 150 μL/well ABTS substrate solution (BioLegend, San Diego, Calif.) for 30 min at room temperature. The absorbance (405 nm) of wells was measured in a microplate reader (Molecular Device, Menlo Park, Calif.).
Binding of the BsAbs was detected by ELISA. Microtiter plates were first coated with antigens and then PEG2×TAG72, PEG2×DNS BsAbs or hCC49 (anti-TAG72) single chain antibody was added. After the plates were extensively washed to remove unbound antibodies, the remaining bound antibodies in each well were detected with HRP-conjugated secondary antibody. […] In sum, PEG2×TAG72 anti-PEG (hE11) BsAb of example 1.2 can bind both PEG and tumor antigens. […]

[2] = tested on: Ramos (CD19+) and A431 (EGFR+) tumor; assay: In vivo optical imaging of PEG-NIR797 probes; design: species or system BALB/c nude mice; conditions: i.v. BsAb and PEG-NIR797; 45 min, 24 and 48 hours
Method: The mice were then imaged at 45 min, 24 and 48 hours after injection using an IVIS spectrum optical imaging system.

A431 cells (EGFR+) = assay: Flow cytometry: BsAb-directed PEG-liposome Texas Red / PEG-Qdot655 on cells; type: cell-based, human; conditions: PEG-liposome Texas Red and PEG-Qdot655, 10 μg/mL BsAb
Method: PEG2×TAG72 or control PEG2×DNS BsAbs (10 μg/mL) were incubated with A-375 (TAG72−), MCF-7 (TAG72+), Jurkat (TAG72+) or OVCAR-3 (TAG72+) cells at 4° C. for 30 min followed by FITC-labeled goat anti-human immunoglobulin second antibody (2 μg/mL) (Jackson ImmunoResearch Laboratories, West Grove, Pa.) or FITC-labeled 4arm-PEG (2 μg/mL). Tumor-specific targeting of PEGylated compounds was also examined by staining A431 (EGFR^high), and Raji (CD19^high) cell lines with 10 μg/mL of h6.3Fab×EGFR or h6.3Fab×CD19 BsAbs in PBS containing 0.05% BSA (staining buffer) at 4° C. for 30 min. The cells were washed with cold PBS for 3 times. PEG-Qdot655 (8 nM) (Invitrogen, Grand Island, N.Y.) or PEG-liposomal Texas-Red (100 nm size, 50 μM, lipid conc.) (FormuMax Scientific, Palo Alto, Calif.) in staining buffer was added to cells for 30 min at 4° C. Raji cells (CD19+) or SKBR3 cells (HER2+) were incubated with 10 μg/ml h15-2b-knob/BU12-hole, h15-2b-knob/anti-Her2-hole, h6-3-knob/BU12-hole or h6-3-knob/anti-Her2-hole BsAbs, washed and incubated with 0.25 μg/ml FITC-labeled goat anti-human IgG or 10 nM methoxy-PEG Qdot 655 at 4° C. for 30 min. After washing with cold PBS, the surface fluorescence of 10^4 viable cells was measured by FACScaliber flow cytometer (Becton Dickinson, Mountain View, Calif., USA) then analyzed with Flowjo (Tree Star Inc., San Carlos, Calif., USA). […]

MDA-MB-468 cells (EGFR+) = assay: Cytotoxicity assay of Doxisome with h6.3 BsAbs (3H-thymidine); type: cell-based, human; conditions: compared with Doxisome alone
A431 (EGFR+) cells = assay: as above; type: cell-based, human; conditions: compared with Doxisome alone
Method: A431 (EGFR^high) and Raji (CD19^high) cells (5000 cells/well) were seeded in 96-well plates overnight. Fifteen microgram per mL of h6.3Fab×EGFR or h6.3Fab×CD19 BsAbs were added to the cells for 30 min at 37° C. and followed by graded concentrations of free doxorubicin or PEGylated liposomal doxorubicin (Doxisome®, Taiwan Liposome Company Ltd., Taipei, Taiwan) was added to the cells in triplicate at 37° C. for 4 h. The cells were subsequently washed once and incubated for an additional 48 h in fresh culture medium and then pulsed for 16 h with ^3H-thymidine (1 μCi/well). Results are expressed as percent inhibition of ^3H-thymidine incorporation into cellular DNA in comparison to untreated cells.
Next, the ability of whether h6.3Fab×CD19 and h6.3Fab×EGFR BsAbs could increase the cytotoxicity of the drug-loaded nanoparticles (NPs) to antigen-positive cancer cells was investigated. Raji (CD19+) and A431 (EGFR+) cells were incubated with h6.3Fab×CD19 and h6.3Fab×EGFR, followed by the addition of graded concentrations of Doxisome (i.e., PEGylated liposomal doxorubicin).

Chain of BSA (P02769 25-607): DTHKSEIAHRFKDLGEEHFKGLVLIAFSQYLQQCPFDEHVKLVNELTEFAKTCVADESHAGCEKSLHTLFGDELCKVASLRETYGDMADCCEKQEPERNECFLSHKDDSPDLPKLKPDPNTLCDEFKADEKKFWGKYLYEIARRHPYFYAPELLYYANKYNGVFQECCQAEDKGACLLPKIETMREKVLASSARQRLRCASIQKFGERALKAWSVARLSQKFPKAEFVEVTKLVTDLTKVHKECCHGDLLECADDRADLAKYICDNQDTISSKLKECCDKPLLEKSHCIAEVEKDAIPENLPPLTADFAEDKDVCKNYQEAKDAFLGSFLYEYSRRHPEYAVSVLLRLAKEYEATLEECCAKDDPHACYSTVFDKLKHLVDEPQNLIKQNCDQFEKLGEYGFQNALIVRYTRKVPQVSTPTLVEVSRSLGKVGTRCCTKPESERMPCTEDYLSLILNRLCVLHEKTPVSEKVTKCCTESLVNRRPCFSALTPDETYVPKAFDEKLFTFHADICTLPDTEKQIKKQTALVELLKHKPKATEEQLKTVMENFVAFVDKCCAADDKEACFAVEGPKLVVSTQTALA

B1: h6.3Fab×EGFR: monovalent humanized anti-PEG h6.3 Fab fused to 11F8 anti-EGFR dsFv; SEQ ID NO 9, 10, 4, 7, 6 (protein)
chain 1: DIVMTQSPDSLAVSLGERATINCKSSQSVLYSSNQMNYLAWYQQKPGQPPKLLIYWASTRESGVPDRFSGSGSGTDFTLTISSLQAEDVAVYYCLQYLSSWTFGGGTKLEIKTYSLSSTLTLSKADYEKHKLYACEVTHQGLSSPVTKSFNRGEC
chain 2: QVQLVQSGSELKKPGASVKVSCKASGYTFKNYGMNWVRQAPGQGLEWMGWINTYTGQPIYANDFKGRFVFSLDTSVSTAYLQISSLKAEDTAVYYCARDWGPYWGQGTLVTVSSASTKGPSVFPLAPSSKSTSGGTAALGCLVKDYFPEPVTVSWNSGALTSGVHTFPAVLQSSGLYSLSSVVTVPSSSLGTQTYICNVNHKPSNTKVDKRVEPKSCDK
chain 3: VDLVTVSSASTGGGSGQLGGGGS
chain 4: QVQLQESGPGLVKPSQTLSLTCTVSGGSISSGDYYWSWIRQPPGKCLEWIGYIYYSGSTDYNPSLKSRVTMSVDTSKNQFSLKVNSVTAADTAVYYCARVSIFGVGTFDYWGQGTLVTVSSGGGGSGGGGSGGGGSEIVMTQSPATLSLSPGERATLSCRASQSVSSYLAWYQQKPGQAPRLLIYDASNRATGIPARFSGSGSGTDFTLTISSLEPEDFAVYYCHQYGSTPLTFGCGTKAEIK
chain 5: TRHHHHHH
modifications: Humanized 6.3 VL-Ck; Humanized 6.3 VH-CH1; Peptide Linker; 11F8 anti-EGFR dsFv; 6xHis Tag
binding to NH2-PEG10,000-NH2 [1]: bound to the NH2-PEG10,000-NH2 | uptake of PEG-Qdot655 into A431 cells (endocytic vesicles) (A431 (EGFR+) tumor cells): displayed red fluorescence within endocytic vesicles | binding to BSA (BSA): not to the control BSA protein | PEG-NIR797 signal in A431 tumors [2]: Enhanced signals of PEG-NIR797 | directing PEGylated substance to A431 cells (A431 cells (EGFR+)): capable of directing the PEGylated substance | effect on cytotoxicity of Doxisome to MDA-MB-468 cells (MDA-MB-468 cells (EGFR+)): enhanced cytotoxicity of Doxisome | effect on cytotoxicity of Doxisome to A431 cells (A431 (EGFR+) cells): enhanced cytotoxicity of Doxisome

From US10188742B2, “Bi-specific antibodies and uses thereof” (ACADEMIA SINICA, priority 2014, dated 2019)
